B1: NS3/4a PI (protein)
chain: MAPITAYAQQTRGLLGCIITSLTGRDKNQVEGEVQIVSTAAQTFLATCINGVCWTVYHGAGTRTIASPKGPVIQMYTNVDQDLVGWPAPQGSRSLTPCTCGSSDLYLVTRHADVIPVRRRGDSRGSLLSPRPISYLKGSSGGPLLCPAGHAVGIFRAAVCTRGVAKAVDFIPVENLETTMRSPVFTDNSSPPVVPQSFQVAHLHAPTGSGKSTKVPAAYAAQGYKVLVLNPSVAATLGFGAYMSKAHGIDPNIRTGVRTITTGSPITYSTYGKFLADGGCSGGAYDIIICDECHSTDATSILGIGTVLDQAETAGARLVVLATATPPGSVTVPHPNIEEVALSTTGEIPFYGKAIPLEVIKGGRHLIFCHSKKKCDELAAKLVALGINAVAYYRGLDVSVIPPIGDVVVVATDALMTGYTGDFDSVIDCNTCVTQTVDFSLDPTFTIETITLPQDAVSRTQRRGRTGRGKPGIYRFVAPGERPSGMFDSSVLCECYDAGCAWYELTPAETTVRLRAYMNTPGLPVCQDHLEFWEGVFTGLTHIDAHFLSQTKQSGENLPYLVAYQATVCARAQAPPPSWDQMWKCLIRLKPTLHGPTPLLYRLGAVQNEITLTHPVTKYIMTCMSADLEVVTSTWVLVGGVLAALAAYCLSTGCVVIVGRVVLSGKPAIIPDREVLYREFDEMEEC
B1: the “proteolytic cleavage (SDS-PAGE and anti-hSOD Western blot after 30 minutes at room temperature)” value is “the NS3/4a cleaved MEFA 7.1 (lane 5, FIGS. 14A and 14B)” with MEFA 7.1; “MEFA 7.2, on the other hand, showed no degradation (lane 6, FIGS. 14A and 14B)” in the data set with MEFA 7.2.

Values taken from patent US20080299544.
